Data taken from paper PMC3096069 (Journal of molecular biology, 2011).
Where a chain is given by its changes, count along the chain named.

B1: mSin3A PAH2 (mammalian Sin3A PAH2 domain, residues 295-385) (domain or fragment, UniProt Q60520 295-385, looked up)
chain: SLQNNQPVEFNHAINYVNKIKNRFQGQPDIYKAFLEILHTYQKEQRNAKEAGGNYTPALTEQEVYAQVARLFKNQEDLLSEFGQFLPDANS
B2: Pf1 200-241 (human Pf1 residues 200-241, wild type) (domain or fragment, UniProt Q96QT6 200-241, looked up)
chain: DYVQPQLRRPFELLIAAAMERNPTQFQLPNELTCTTALPGSS
B3: Pf1 200-241 Phe225Ala (domain or fragment, human, UniProt Q96QT6 200-241, looked up)
chain: B2 chain with F26A
B4: Pf1 200-241 Asn221Glu (domain or fragment, human, UniProt Q96QT6 200-241, looked up)
chain: B2 chain with N22E
B5: Pf1 200-241 Leu212Ala (domain or fragment, human, UniProt Q96QT6 200-241, looked up)
chain: B2 chain with L13A

How the values were obtained:
[1] = biological target: Pf1 200-241 (human Pf1 residues 200-241, wild type) (human) (UniProt Q96QT6); test: ITC
[2] = biological target: mSin3A PAH2 (Mus musculus) (UniProt Q60520); details: cited from earlier work
mSin3A PAH2 (Mus musculus), sequence (Q60520 297-386): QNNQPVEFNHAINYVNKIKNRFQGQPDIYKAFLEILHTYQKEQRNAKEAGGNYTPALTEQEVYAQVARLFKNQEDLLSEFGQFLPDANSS

[3] = biological target: B2; test: ITC
Pf1 200-241 Phe225Ala = biological target: B3; test: ITC
Pf1 200-241 Leu212Ala = biological target: B5; test: ITC
Pf1 200-241 Asn221Glu = biological target: B4; test: ITC
[4] = biological target: B1; test: ITC
[5] = biological target: MRG15 MRG (human MRG15 MRG domain, residues 155-323) (human, UniProt Q9UBU8-2 155-323); test: ITC
MRG15 MRG (human MRG15 MRG domain, residues 155-323), sequence (Q9UBU8 194-362): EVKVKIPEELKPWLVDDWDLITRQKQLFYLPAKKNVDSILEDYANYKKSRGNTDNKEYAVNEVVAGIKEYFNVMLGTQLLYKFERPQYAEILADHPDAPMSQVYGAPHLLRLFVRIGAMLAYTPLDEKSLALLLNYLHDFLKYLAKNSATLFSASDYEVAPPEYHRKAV

With “mSin3B PAH2 (mammalian Sin3B PAH2 domain) (domain or fragment)” as the molecule, how does the Kd [1] read?
Its Kd is 2930 nM.

What about the dH [1] of the same molecule?
The dH was -9.64 kcal/mol.

What about the stoichiometry N [1] of the same molecule?
The stoichiometry N was 1.02.

With Mad1/Mxd1 (from UniProt Q05195) as the molecule, how does the Kd [2] read?
Its Kd is 50 nM.

For B1, which dH [3] is on record?
The dH was -6.58 ± 0.48 kcal/mol.

And the “stoichiometry N” value [3]?
Its value is 0.99 ± 0.05.

What about the dH (Pf1 200-241 Phe225Ala) of the same molecule?
Its dH is -4.97 kcal/mol.

And the “stoichiometry N” value (Pf1 200-241 Phe225Ala)?
Its value is 1.12.

And the dH (Pf1 200-241 Leu212Ala)?
The dH was -4.31 ± 0.49 kcal/mol.

What about the “stoichiometry N” value (Pf1 200-241 Leu212Ala) of the same molecule?
Its value is 1 ± 0.11.

And the dH (Pf1 200-241 Asn221Glu)?
Its dH is -7.67 ± 0.43 kcal/mol.

What about the “stoichiometry N” value (Pf1 200-241 Asn221Glu) of the same molecule?
Its value is 1.16 ± 0.08.

For B2, which Kd [4] is on record?
The Kd was 2150 ± 450 nM.

What about the Kd [5] of the same molecule?
The Kd was 15 ± 3 nM.

What about the dH [5] of the same molecule?
The dH was -13.1 ± 0.4 kcal/mol.

And the “stoichiometry N” value [5]?
Its value is 0.82 ± 0.08.

Which Kd [4] does the source give for B3 here?
The Kd was 1650 nM.

Which Kd [4] does the source give for B4 here?
The Kd was 630 ± 50 nM.

With B5 as the molecule, how does the Kd [4] read?
The Kd was 2660 ± 460 nM.
